Laboratory results reported in the supplement of paper PMC5998384.

Legend:
HeLa Kyoto [1] = test: solubility change mitosis vs G1/S (difference of NP-40 vs SDS log2 ratios) (log2 ratio difference); higher = more soluble in mitosis
HeLa Kyoto [2] = test: melting temperature (median over replicates), in situ; higher = more thermally stable
HeLa Kyoto [3] = test: thermal stability score vs G1/S (z-score of summed log2 fold changes over temperatures); higher = more thermally stable than in G1/S
HeLa Kyoto [4] = test: solubility in G1/S (NP-40 vs SDS abundance) (log2 ratio); higher = more soluble; conditions: cell cycle stage: G1/S
[5] = cell cycle stage: early G1 (4.5 h after nocodazole release)
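Throughout, for melting temperature (median over replicates), in situ: HeLa Kyoto cells synchronized by double thymidine or nocodazole block, proteins quantified by TMT10plex mass spectrometry, three independent biological replicates.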
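Throughout, for solubility change mitosis vs G1/S (difference of NP-40 vs SDS log2 ratios): synchronized HeLa Kyoto cells (double thymidine block for G1/S, nocodazole release for mitosis), protein amounts in NP-40 versus SDS lysates quantified by mass spectrometry, three biological replicates.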
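Throughout, for solubility in G1/S (NP-40 vs SDS abundance): HeLa Kyoto cells arrested at G1/S by double thymidine block, proteins quantified by TMT10plex mass spectrometry in mild NP-40 versus SDS extracts, three biological replicates.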
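Throughout, for thermal stability score vs G1/S (z-score of summed log2 fold changes over temperatures): synchronized HeLa Kyoto cells, proteins quantified by TMT10plex mass spectrometry, three biological replicates, mitosis taken 0.5 h after nocodazole release, G1/S directly after double thymidine block.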

Chain of MAT2A (chain, as listed by the source): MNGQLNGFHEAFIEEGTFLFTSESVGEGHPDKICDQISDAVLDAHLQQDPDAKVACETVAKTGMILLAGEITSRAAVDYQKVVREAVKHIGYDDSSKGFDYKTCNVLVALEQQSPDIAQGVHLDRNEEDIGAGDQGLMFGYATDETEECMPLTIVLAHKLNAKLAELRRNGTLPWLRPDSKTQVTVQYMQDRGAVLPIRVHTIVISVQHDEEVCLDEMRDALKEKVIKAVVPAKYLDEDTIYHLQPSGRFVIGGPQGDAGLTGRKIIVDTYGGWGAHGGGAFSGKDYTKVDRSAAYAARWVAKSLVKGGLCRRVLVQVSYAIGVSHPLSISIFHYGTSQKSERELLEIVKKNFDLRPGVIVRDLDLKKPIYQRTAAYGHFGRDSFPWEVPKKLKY

Substance | solubility change mitosis (log2) (HeLa Kyoto [1]) | melting temperature (HeLa Kyoto [2]; cell cycle stage: G1/S) [°C] | melting temperature (HeLa Kyoto [2]; cell cycle stage: mitosis) [°C] | thermal stability score (HeLa Kyoto [3]; [5]) | thermal stability score (HeLa Kyoto [3]; cell cycle stage: mitosis) | solubility in G1/S (log2) (HeLa Kyoto [4])
MASQPNSSAKKKEEKGKNIQVVVRCRPFNLAERKASAHSIVECDPVRKEVSVRTGGLADKSSRKTYTFDMVFGASTKQIDVYRSVVCPILDEVIMGYNCTIFAYGQTGTGKTFTMEGERSPNEEYTWEEDPLAGIIPRTLHQIFEKLTDNGTEFSVKVSLLEIYNEELFDLLNPSSDVSERLQMFDDPRNKRGVIIKGLEEITVHNKDEVYQILEKGAAKRTTAATLMNAYSSRSHSVFSVTIHMKETTIDGEELVKIGKLNLVDLAGSENIGRSGAVDKRAREAGNINQSLLTLGRVITALVERTPHVPYRESKLTRILQDSLGGRTRTSIIATISPASLNLEETLSTLEYAHRAKNILNKPEVNQKLTKKALIKEYTEEIERLKRDLAAAREKNGVYISEENFRVMSGKLTVQEEQIVELIEKIGAVEEELNRVTELFMDNKNELDQCKSDLQNKTQELETTQKHLQETKLQLVKEEYITSALESTEEKLHDAASKLLNTVEETTKDVSGLHSKLDRKKAVDQHNAEAQDIFGKNLNSLFNNMEELIKDGSSKQKAMLEVHKTLFGNLLSSSVSALDTITTVALGSLTSIPENVSTHVSQIFNMILKEQSLAAESKTVLQELINVLKTDLLSSLEMILSPTVVSILKINSQLKHIFKTSLTVADKIEDQKKELDGFLSILCNNLHELQENTICSLVESQKQCGNLTEDLKTIKQTHSQELCKLMNLWTERFCALEEKCENIQKPLSSVQENIQQKSKDIVNKMTFHSQKFCADSDGFSQELRNFNQEGTKLVEESVKHSDKLNGNLEKISQETEQRCESLNTRTVYFSEQWVSSLNEREQELHNLLEVVSQCCEASSSDITEKSDGRKAAHEKQHNIFLDQMTIDEDKLIAQNLELNETIKIGLTKLNCFLEQDLKLDIPTGTTPQRKSYLYPSTLVRTEPREHLLDQLKRKQPELLMMLNCSENNKEETIPDVDVEEAVLGQYTEEPLSQEPSVDAGVDCSSIGGVPFFQHKKSHGKDKENRGINTLERSKVEETTEHLVTKSRLPLRAQINL [KIF11] | -0.143 | 48.2 | 49 | 6 | 5.17 | -0.0398
MASSNTVLMRLVASAYSIAQKAGMIVRRVIAEGDLGIVEKTCATDLQTKADRLAQMSICSSLARKFPKLTIIGEEDLPSEEVDQELIEDSQWEEILKQPCPSQYSAIKEEDLVVWVDPLDGTKEYTEGLLDNVTVLIGIAYEGKAIAGVINQPYYNYEAGPDAVLGRTIWGVLGLGAFGFQLKEVPAGKHIITTTRSHSNKLVTDCVAAMNPDAVLRVGGAGNKIIQLIEGKASAYVFASPGCKKWDTCAPEVILHAVGGKLTDIHGNVLQYHKDVKHMNSAGVLATLRNYDYYASRVPESIKNALVP [BPNT1] | -0.0215 | 57.5 | 57.9 | -0.366 | -1.21 | 0.211
MASSRASSTQATKTKAPDDLVAPVVKKPHIYYGSLEEKERERLAKGESGILGKDGLKAGIEAGNINITSGEVFEIEEHISERQAEVLAEFERRKRARQINVSTDDSEVKACLRALGEPITLFGEGPAERRERLRNILSVVGTDALKKTKKDDEKSKKSKEEYQQTWYHEGPNSLKVARLWIANYSLPRAMKRLEEARLHKEIPETTRTSQMQELHKSLRSLNNFCSQIGDDRPISYCHFSPNSKMLATACWSGLCKLWSVPDCNLLHTLRGHNTNVGAIVFHPKSTVSLDPKDVNLASCAADGSVKLWSLDSDEPVADIEGHTVRVARVMWHPSGRFLGTTCYDRSWRLWDLEAQEEILHQEGHSMGVYDIAFHQDGSLAGTGGLDAFGRVWDLRTGRCIMFLEGHLKEIYGINFSPNGYHIATGSGDNTCKVWDLRQRRCVYTIPAHQNLVTGVKFEPIHGNFLLTGAYDNTAKIWTHPGWSPLKTLAGHEGKVMGLDISSDGQLIATCSYDRTFKLWMAE [PRPF4] | 0.223 | 49.9 | 49.5 | -0.546 | -0.96 | -0.454
MASSSGNDDDLTIPRAAINKMIKETLPNVRVANDARELVVNCCTEFIHLISSEANEICNKSEKKTISPEHVIQALESLGFGSYISEVKEVLQECKTVALKRRKASSRLENLGIPEEELLRQQQELFAKARQQQAELAQQEWLQMQQAAQQAQLAAASASASNQAGSSQDEEDDDDI [DR1] | 0.91 | 58.2 | 52.7 | -1.34 | -0.438 | -0.174
MASSSGSKAEFIVGGKYKLVRKIGSGSFGDIYLAINITNGEEVAVKLESQKARHPQLLYESKLYKILQGGVGIPHIRWYGQEKDYNVLVMDLLGPSLEDLFNFCSRRFTMKTVLMLADQMISRIEYVHTKNFIHRDIKPDNFLMGIGRHCNKLFLIDFGLAKKYRDNRTRQHIPYREDKNLTGTARYASINAHLGIEQSRRDDMESLGYVLMYFNRTSLPWQGLKAATKKQKYEKISEKKMSTPVEVLCKGFPAEFAMYLNYCRGLRFEEAPDYMYLRQLFRILFRTLNHQYDYTFDWTMLKQKAAQQAASSSGQGQQAQTPTGKQTDKTKSNMKGF [CSNK1A1] | -0.0146 | 49.6 | 50.2 | 1.17 | 1.69 | -0.00541
MASSSVPPATVSAATAGPGPGFGFASKTKKKHFVQQKVKVFRAADPLVGVFLWGVAHSINELSQVPPPVMLLPDDFKASSKIKVNNHLFHRENLPSHFKFKEYCPQVFRNLRDRFGIDDQDYLVSLTRNPPSESEGSDGRFLISYDRTLVIKEVSSEDIADMHSNLSNYHQYIVKCHGNTLLPQFLGMYRVSVDNEDSYMLVMRNMFSHRLPVHRKYDLKGSLVSREASDKEKVKELPTLKDMDFLNKNQKVYIGEEEKKIFLEKLKRDVEFLVQLKIMDYSLLLGIHDIIRGSEPEEEAPVREDESEVDGDCSLTGPPALVGSYGTSPEGIGGYIHSHRPLGPGEFESFIDVYAIRSAEGAPQKEVYFMGLIDILTQYDAKKKAAHAAKTVKHGAGAEISTVHPEQYAKRFLDFITNIFA [PIP4K2C] | -0.07 | 49 | 48.7 | 0.688 | 2 | 0.315
MASTSRLDALPRVTCPNHPDAILVEDYRAGDMICPECGLVVGDRVIDVGSEWRTFSNDKATKDPSRVGDSQNPLLSDGDLSTMIGKGTGAASFDEFGNSKYQNRRTMSSSDRAMMNAFKEITTMADRINLPRNIVDRTNNLFKQVYEQKSLKGRANDAIASACLYIACRQEGVPRTFKEICAVSRISKKEIGRCFKLILKALETSVDLITTGDFMSRFCSNLCLPKQVQMAATHIARKAVELDLVPGRSPISVAAAAIYMASQASAEKRTQKEIGDIAGVADVTIRQSYRLIYPRAPDLFPTDFKFDTPVDKLPQL [GTF2B] | -0.111 | 49.7 | 49.4 | 2.28 | 4 | 0.251
MASTSYDYCRVPMEDGDKRCKLLLGIGILVLLIIVILGVPLIIFTIKANSEACRDGLRAVMECRNVTHLLQQELTEAQKGFQDVEAQAATCNHTVMALMASLDAEKAQGQKKVEELEGEITTLNHKLQDASAEVERLRRENQVLSVRIADKKYYPSSQDSSSAAAPQLLIVLLGLSALLQ [BST2] | 0.237 | 57.4 | 56.4 | -4.66 | -5.14 | -0.713
MASVGECPAPVPVKDKKLLEVKLGELPSWILMRDFSPSGIFGAFQRGYYRYYNKYINVKKGSISGITMVLACYVLFSYSFSYKHLKHERLRKYH [ATP5J2] | -0.104 | 53 |  | -0.273 | 1.63 | 0.148
MASVSALTEELDSITSELHAVEIQIQELTERQQELIQKKKVLTKKIKQCLEDSDAGASNEYDSSPAAWNKEDFPWSGKVKDILQNVFKLEKFRPLQLETINVTMAGKEVFLVMPTGGGKSLCYQLPALCSDGFTLVICPLISLMEDQLMVLKQLGISATMLNASSSKEHVKWVHAEMVNKNSELKLIYVTPEKIAKSKMFMSRLEKAYEARRFTRIAVDEVHCCSQWGHDFRPDYKALGILKRQFPNASLIGLTATATNHVLTDAQKILCIEKCFTFTASFNRPNLYYEVRQKPSNTEDFIEDIVKLINGRYKGQSGIIYCFSQKDSEQVTVSLQNLGIHAGAYHANLEPEDKTTVHRKWSANEIQVVVATVAFGMGIDKPDVRFVIHHSMSKSMENYYQESGRAGRDDMKADCILYYGFGDIFRISSMVVMENVGQQKLYEMVSYCQNISKCRRVLMAQHFDEVWNSEACNKMCDNCCKDSAFERKNITEYCRDLIKILKQAEELNEKLTPLKLIDSWMGKGAAKLRVAGVVAPTLPREDLEKIIAHFLIQQYLKEDYSFTAYATISYLKIGPKANLLNNEAHAITMQVTKSTQNSFRAESSQTCHSEQGDKKMEEKNSGNFQKKAANMLQQSGSKNTGAKKRKIDDA [RECQL] | -0.174 | 54 | 53.4 | -1.7 | -4.39 | 0.0561
MASVTRAVFGELPSGGGTVEKFQLQSDLLRVDIISWGCTITALEVKDRQGRASDVVLGFAELEGYLQKQPYFGAVIGRVANRIAKGTFKVDGKEYHLAINKEPNSLHGGVRGFDKVLWTPRVLSNGVQFSRISPDGEEGYPGELKVWVTYTLDGGELIVNYRAQASQATPVNLTNHSYFNLAGQASPNINDHEVTIEADTYLPVDETLIPTGEVAPVQGTAFDLRKPVELGKHLQDFHLNGFDHNFCLKGSKEKHFCARVHHAASGRVLEVYTTQPGVQFYTGNFLDGTLKGKNGAVYPKHSGFCLETQNWPDAVNQPRFPPVLLRPGEEYDHTTWFKFSVA [GALM] | -0.0325 |  | 51.4 | -0.647 | -0.863 | 0.236
MAT2A | -0.123 | 57 | 57.3 | -0.032 | 0.349 | -0.00612
MATAAAAAAVMAPPGCPGSCPNFAVVCSFLERYGPLLDLPELPFPELERVLQAPPPDVGNGEVPKELVELHLKLMRKIGKSVTADRWEKYLIKICQEFNSTWAWEMEKKGYLEMSVECKLALLKYLCECQFDDNLKFKNIINEEDADTMRLQPIGRDKDGLMYWYQLDQDHNVRMYIEEQDDQDGSSWKCIVRNRNELAETLALLKAQIDPVLLKNSSQQDNSSRESPSLEDEETKKEEETPKQEEQKESEKMKSEEQPMDLENRSTANVLEETTVKKEKEDEKELVKLPVIVKLEKPLPENEEKKIIKEESDSFKENVKPIKVEVKECRADPKDTKSSMEKPVAQEPERIEFGGNIKSSHEITEKSTEETEKLKNDQQAKIPLKKREIKLSDDFDSPVKGPLCKSVTPTKEFLKDEIKQEEETCKRISTITALGHEGKQLVNGEVSDERVAPNFKTEPIETKFYETKEESYSPSKDRNIITEGNGTESLNSVITSMKTGELEKETAPLRKDADSSISVLEIHSQKAQIEEPDPPEMETSLDSSEMAKDLSSKTALSSTESCTMKGEEKSPKTKKDKRPPILECLEKLEKSKKTFLDKDAQRLSPIPEEVPKSTLESEKPGSPEAAETSPPSNIIDHCEKLASEKEVVECQSTSTVGGQSVKKVDLETLKEDSEFTKVEMDNLDNAQTSGIEEPSETKGSMQKSKFKYKLVPEEETTASENTEITSERQKEGIKLTIRISSRKKKPDSPPKVLEPENKQEKTEKEEEKTNVGRTLRRSPRISRPTAKVAEIRDQKADKKRGEGEDEVEEESTALQKTDKKEILKKSEKDTNSKVSKVKPKGKVRWTGSRTRGRWKYSSNDESEGSGSEKSSAASEEEEEKESEEAILADDDEPCKKCGLPNHPELILLCDSCDSGYHTACLRPPLMIIPDGEWFCPPCQHKLLCEKLEEQLQDLDVALKKKERAERRKERLVYVGISIENIIPPQEPDFSEDQEEKKKDSKKSKANLLERRSTRTRKCISYRFDEFDEAIDEAIEDDIKEADGGGVGRGKDISTITGHRGKDISTILDEERKENKRPQRAAAARRKKRRRLNDLDSDSNLDEEESEDEFKISDGSQDEFVVSDENPDESEEDPPSNDDSDTDFCSRRLRRHPSRPMRQSRRLRRKTPKKKYSDDDEEEESEENSRDSESDFSDDFSDDFVETRRRRSRRNQKRQINYKEDSESDGSQKSLRRGKEIRRVHKRRLSSSESEESYLSKNSEDDELAKESKRSVRKRGRSTDEYSEADEEEEEEEGKPSRKRLHRIETDEEESCDNAHGDANQPARDSQPRVLPSEQESTKKPYRIESDEEEDFENVGKVGSPLDYSLVDLPSTNGQSPGKAIENLIGKPTEKSQTPKDNSTASASLASNGTSGGQEAGAPEEEEDELLRVTDLVDYVCNSEQL [RSF1] | 0.0168 | 49.1 | 51.7 | 0.31 | 2.21 | -1.03
